Source: patent publication US11898183B2, “Programmed microorganisms to attenuate a disease” (priority 2020, dated 2024)

System: pathway specific substrates
Assay: Enzyme functionality of pathway enzyme homologs and fusion constructs in lysed E. coli cell extracts, product by HPLC
Type: biochemical, E. coli BL21
Conditions: recombinant E. coli BL21 clone, lysed cell extract
Description: As per one of the possible implementations of the present disclosure, two proteins—cinnamate-4-hydroxylate (C4H) and 4-coumaroyl CoA-ligase (4CL) were expressed as one fusion protein. Also, other two proteins which were expressed as one fusion protein were hydroxycinnamoyl-CoA quinate hydroxycinnamoyltransferase (HCT) and p-coumaroyl quinate 3′-hydroxylase (HCTC3H). The fusion gene and the corresponding fusion protein was prepared using the following method. […] The enzyme fusion constructs were made for the selected genes (Table 5). Pathway genes and the fusion constructs were individually cloned in E. coli expression vector pET28+ under T7 promoter and transformed in E. coli BL21 cells. Recombinant bacterial cells were induced with IPTG and enzyme functionality was tested with pathway specific substrates (Table 5) using lysed E. coli cell extracts. HPLC analysis was carried out to quantify the product formation and in turn shortlisting of efficient enzymes for functional pathway assembly towards Etoposide in E. coli.
The E. coli transformants were grown overnight at 37° C. in 1 ml of M9 minimal media containing ampicillin (100 mg/1), in 96-well format. The next day, 150 μl of each culture was inoculated into 3 ml M9 minimal media containing ampicillin (100 mg/1), IPTG 0.1 mM in 24-well format, and incubated at 30° C. and 200 rpm for ˜20 hours. The following day, cells were spun down and pellets were resuspended in 100 μl of lysis buffer containing 10 mM Tris-HCl pH 8, 5 mM MgCl2, 1 mM CaCl2) and complete mini protease inhibitor EDTA-free (3 tablets/100 ml) (Hoffmann-La Roche, Basel, Switzerland) and frozen at −80° C. for at least 15 minutes to promote cell lysis. Pellets were thawed at room temperature and 50 μl of DNase mix (1 μl of 1.4 mg/ml DNase in H2O (˜80000 u/ml), 1.2 μl of MgCl2 500 mM and 47.8 μl of 4×PBS buffer solution) was added to each well. Plates were shaken at 500 rpm for 5 min at room temperature to allow degradation of genomic DNA. Plates were spun down at 4000 rpm for 30 min at 4° C. and six μl of the lysates were used in in vitro using appropriate substrates for enzymes as per Table 6. In each case, the resulting compounds were measured by HPLC. Results were analysed in comparison with the lysates expressing the corresponding controls (the empty plasmid). […]

[1] = substrate tested: Desmethylepipodophyllotoxin

B1: hydroxycinnamoyl-CoA: quinate hydroxycinnamoyltransferase p-coumaroyl quinate 3′-hydroxylase fusion (HCTC3H) (SEQ ID NO: 14) Coffea canephora (protein, listed as Coffea canephora)
chain: MKIEVKESTMVRPAQETPGRNLWNSNVDLVVPNFHTPSVYFYRPTGSSNFFDAKVLKDALSRALVPFYPMAGRLKRDEDGRIEIECNGEGVLFVEAESDGVVDDFGDFAPTLELRRLIPAVDYSQGISSYALLVLQVTYFKCGGVSLGVGMRHHAADGFSGLHFINSWSDMARGLDVTLPPFIDRTLLRARDPPQPQFQHIEYQPPPALKVSPQTAKSDSVPETAVSIFKLTREQISALKAKSKEDGNTISYSSYEMLAGHVWRCACKARGLEVDQGTKLYIATDGRARLRPSLPPGYFGNVIFTATPIAIAGDLEFKPVWYAASKIHDALARMDNDYLRSALDYLELQPDLKALVRGAHTFKCPNLGITSWVRLPIHDADFGWGRPIFMGPGGIAYEGLSFILPSPTNDGSMSVAISLQGEHMKLFQSFLYDIGGGGSGGGGSGGGGSMALLLILLPVAFIFLAYSLYERLRFKLPPGPRPKPVVGNIYDIKPVRFKCYAEWSKLYGPIFSVYFGSQLNTVVNTAELAKEVLKDNDQQLADRYRSRPSARMSRNGQDLIWADYGPHYVKVRKLCNLELFTPKRLEGLRPLREDEVTAMVDSIFKDCTKPENKGKSLLMRNYLGSVAFNNITRLTFGKRFMNSEGVVDEQGQEFKGIVSNGIRIGAKLSVADHIPWLRWMFVGENEDLDKHNARRDKLTRMIMEEHTLARQKSGNTKQHFVDALLTLQKQYELSDDTVIGLLWDMITAGMDTTTISVEWAMAELVKNPRVQQKAQEELDRVIGSDRIMTEADFAKLPYLQCVAKEALRLHPPTPLMLPHRANANVKIGGYDIPKGSIVHVNVWAIARDPAAWKNPLEFRPERFLEEDVDIKGHDYRLLPFGAGRRICPGAQLALNLVTSMLGHLLHHFTWSPPPGVRPEEIDLEESPGTVTYMRTPLQAVATPRLPAHLYNRVPVE
In the case of B1, the “Enzyme activity in terms of product formation (in %)” value (“Enzyme activity in terms … (in %)” for short) (substrate tested: Coumaroyl coA) is reported as 89%.

B2: Glycosyltransferase (UGT) (SEQ ID NO: 48) Barbarea vulgaris (protein, listed as Barbarea vulgaris)
chain: MKSELVFIPYPGIGHLRPTVEVAKLLVDREPRLSISVFILPFISGDEVGASDYISALSAASNDRLRYKVIFTGDQETAEPTKLTLHIENQVPKVRTAVAKLIDEYSKLLDSPKIVGFVLDMFCTSMIDVANEFELPSYMFFTSSAGILAVSFHVQVLYDEKKCNFSETMFEDSEAELILPSLTRPYPVKSLPYALFRTEMLIMHVNLARRFRELKGILVNTVDELEPHALKFLLSGITPPAYPVGPLLHLESNQDDESEDEKRSEIIMWLDEQPASSVVFLCFGSMGGFSEEQTREIAIALERSGHRFLWSLRRESPNIDKELPGEFTNLEEVLPEGFFDRTKGIGKVIGWAPQVAVLENPAIGGFVTHGGWNSVLESLWFGVPTAMWPLYAEQKFNAFVMVEELGLAVEIKKYWRGDLLLGRSAMEIVTADEIERGITCLMQQDSDVRKRVKEMKGKCHVALMDGGSSTLALDKFVEDVTKNI
B2 was tested, and the “Enzyme activity in terms … (in %)” value [1] was 43%.

B3: Cinnamte 4 hydroxylase 4 coumarate coenzyme ligase fusion (C4H4CL) (SEQ ID NO: 12) Azospirillum sp. (protein)
chain: MDLLLLEKTLLALFIAATIAITISKLRGKRFKLPPGPIPVPVFGNWLQVGDDLNHRNLTDLAKRFGDIFLLRMGQRNLVVVSSPELAKEVLHTQGVEFGSRTRNVVFDIFTGKGQDMVFTVYGTLAEMRRIMTVPFFTNKVVQQYRFGWEFEAQSVVDDVKKNPEACSSGIVLRRRLQLMMYNIMYRIMFDRRFESEEDPLFVKLKALNGERSRLAQSFEYNYGDFIPILRPFLKGYLKLCKEVKDRRLQLFKDYFVDERKKLGSTKSTTNEGLKCAIDHILDAQQKGEINDDNVLYIVENINVAAIETTLWSIEWGIAELVNHQKIQNKVREEIDRVLGPGHQVTEPDLQKLPYLQAVIKETLRLRMAIPLLVPHMNLHDAKLSGFDIPAESKILVNAWWLANNPAQWKKPEEFRPERFLEEESHVEANGNDFRYLPFGVGRRSCPGIILALPILGITLGRLVQNFELLPPPGQSKIDTAEKGGQFSLHILKHSTIVCKPRSFNGGGGSGGGGSGGGGSMTIQRWWRNRESLNRVLCDLLAGEFARLRPGGSPPAHPHRWPETLPLGPDGVGADSLDLLQLAAALNEALHLHRSGIEDYLLMHRTVGDWLDVCEAALGRFDGALSFRTSGSTGEGKRCEHPLAALEEEADALAALLSGGAEAPRRVVSVVPAHHIYGFLFTVLLPDRLAVPVVDGRGTSPGGLAARLGPGDLVVAHPDWWGALLRSGAALPDGVTGTSSTAPCPPDTARGVRGVGLARLVEVFGSSETAGLGWRESPDAPFRPFPWWRFGDDGRVTRRLADGTVLSATLQDRLSHDEEGFRPSGRLDTVVQVGGVNVSLAGVQAHLAGHPDVEAAAVRLMRPEEGTRLKAFIVPARTAPPREELYRRLTDWIEATLPAPHRPRALAFGPALPVNGMGKPCDWPLATCR
modifications: Depicts the amino acid sequence of the enzyme Cinnamte 4 hydroxylase 4 coumarate coenzyme ligase fusion (C4H4CL)
For B3, the “Enzyme activity in terms … (in %)” value (substrate tested: Cinnamate) was 97%.

B4: Glycosyltransferase (UGT) (SEQ ID NO: 44) Lycium barbarum (protein)
chain: MGHLVSTVEMAKQLVDREDQLSITVLIMTLPTETKIPSYTKSLSSNYTSRIRLLELTQPETSVNMGSATHPMKFMSEFITSYKGRVKDAVADMFSSLSSVKLAGFVIDMFCTAMIDVANDFGVPSYLFYTSGAAMLGLQFHFQSLISQNVLSYLDSESEVLIPTYINPVPVKFLPGLILDNDEYSIMFLDLAGRFKETKGIMVNTFVEVESHALKALSDDEKIPPIYPVGPILNLGGGNDGHGEEYDSIMKWLDGQPNSSVVFLCFGSMGSFEEDQVKEVANALESSGYQFLWSLRQPPPKDKLQFPSEFENLEEVLPEGFLQRTKGRGKMIGWAPQVAILSHPSVGGFVSHCGWNSTLESVRSGVPMATWPMYAEQQSNAFQLVKDLEMAVEIKMDYRKDFMTINQPVLVKAEEIGNGIRQLMDLVNKIRAKVRKMKEKSEAAIMEGGSSYVALGNFVETVMKS
modifications: Depcits the amino acid sequence of Glycosyltransferase (UGT of Lycium barbarum)
With B4 the “Enzyme activity in terms … (in %)” value [1] was 67%.

B5: 2-Deoxy-d-ribose-5-phosphate aldolase (DERA) (SEQ ID NO: 50) Desulfatibacillum aliphaticivorans (protein)
chain: MTGPKICVVGACNIDLISYVERLPVLGETLHGKKFSMGFGGKGANQAVMAAKLGGEVAMVGKLGRDVFGENTLANFKKLGVNVSHVHFTEEAFSGVAPIAVDDNGANSIIIVTGASDLLSAEEIRAAENAIAKSKVLVCQLEIPMEQNLEALRIARKNNVPTIFNPAPARPGLPDELYQLSDIFCPNESETEILTGMPVETMEQAEQAAKALLERGPKTVILTLGERGCLLVDANGARHIPTRKVEAIDTTGAGDCFVGSLAFFLAAGKSLEDAINRANKIAAVSVCGQGTQSSFPGASELDPEILSDIQPAESQAPAMSAKDLAQYIDHTLLKPEAPLSAFDKICEEAILHQFRSVCVNSCKISYIAKKLKGTGVDACAVIGFPLGAMSTAAKAFEAKQAVMDGAAELDMVINVGALKSGDFDAVFDDIKAVRDAAPLPIILKVIIETCLLTDEEKARACRIAKAADADFVKTSTGFSTGGATLEDIALMRDTVGPYMGVKASGGIKDAKTAIAMIEAGATRIGAGAGVEIVSGLQSDADGSY
modifications: Depicts the amino acid sequence of 2-Deoxy-d- ribose-5-phosphate aldolase (DERA) of Desulfatibacillum aliphaticivorans
B5 was tested, and the “Enzyme activity in terms … (in %)” value (substrate tested: Desmethylepipodophyllotoxin glucopyranoside) was 83%.

B6: Glycosyltransferase (UGT) (SEQ ID NO: 46) Cicer arietinum (protein, listed as Cicer arietinum)
chain: MKKIEVVFIPSPGVGHLISTLEFANLLINRNNRLNITVLVINFPKTVEKQTNYSLTESENLHVINLPQTTTHVPSTSDVGNSISALVETQKSNVKQAVSNLTGTLAAFVVDMFCTTMIDVANELGVPSLVFFTSGVAFLGLMLHLHTIWEQQDTELLLQQDELDIPSFANPVATNTLPTLVLRKEWESSFIKYGNGLKKASGIIVNSFHELEPHAVRSFLEDPTLRDLPIYPVGPILNPKSNVDSDDVIKWLDDQPPSSVVFLCFGSMGTFDEEQVREIALAIERSGVRFLWSLRKPQPQGTMVPPSDYTLSQMLEVLPEGFLDRTANIGRVIGWAPQVQVLAHQATGGFVSHCGWNSTLESIYYGVPIATWPLFAEQQTNAFELVRELKIAVEIALDYRLEFDIGRNYLLDADKIERGIRGVLDKDGEVRKKVKEMSQKSRNVLLEGGSSYTYLGQLIDYITNQV
B6 was tested, and the “Enzyme activity in terms … (in %)” value [1] was 97%.
